Test results reported in patent US20230212279A1, “TREATMENT AND PREVENTION OF DISEASE CAUSED BY TYPE IV COLLAGEN DYSFUNCTION” (Singapore Health Services PTE, LTD., priority 2020, published 2023).
“Also recorded” adds a separate entry of the source.

Experiments:
[1] = test system: rheumatoid synovial cells; conditions: rheumatoid synovial cells upon treatment; cited from earlier work
Col4a3-/- mice [2] = conditions: cited from earlier work
[3] = molecular target: T1, mouse IL11 receptor IL11RA1 (mouse, UniProt Q64385 24-432); experiment: immunohistochemistry on mouse kidney sections (wild-type vs Il11ra1-/-)
T1 construct: whole, on cells; Endogenous protein detected in tissue sections; also called IL-11Rα
T1 sequence (looked up): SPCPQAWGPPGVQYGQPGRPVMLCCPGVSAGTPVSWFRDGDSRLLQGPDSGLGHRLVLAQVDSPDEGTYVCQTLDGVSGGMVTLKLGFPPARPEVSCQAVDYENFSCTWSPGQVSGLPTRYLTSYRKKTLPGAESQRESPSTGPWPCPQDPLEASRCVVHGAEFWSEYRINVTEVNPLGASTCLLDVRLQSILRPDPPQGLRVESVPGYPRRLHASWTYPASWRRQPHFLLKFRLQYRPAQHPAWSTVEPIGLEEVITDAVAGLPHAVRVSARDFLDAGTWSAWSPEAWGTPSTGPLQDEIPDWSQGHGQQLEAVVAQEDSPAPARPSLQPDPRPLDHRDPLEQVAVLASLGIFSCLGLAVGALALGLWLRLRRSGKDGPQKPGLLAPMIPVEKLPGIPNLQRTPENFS
From the text: FIGS. 2A to 2E. […] (2A-2C) Renal (2A) II11 RNA and (2B-2C) IL11 protein expression in wildtype and Col4a3^{-/-} mice. (2D) Immunohistochemistry staining of IL11RA with anti-IL11RA (X209) or IgG (11E10) as control on the kidneys of wild-type and II11ra1^{-/-} mice (scale bars, 20 μm). (2E) Comparison of II11ra1 and gp130 expression in mouse kidney cells based on single cell transcriptomic analysis by Park et. al.¹⁶. (2A) Data are shown as box-and-whisker with median (middle line), 25th-75th percentiles (box) and min-max values (whiskers), (2C) data are shown as mean±SD; 2-tailed Student's t-test. FC: fold change.
(§1) Kidneys were fixed in 10% neutral-buffered formalin (NBF), paraffinized, cut into 7 μm sections, incubated with primary antibodies overnight and visualized using an ImmPRESS HRP anti-rabbit IgG polymer detection kit (MP-7401, Vector Laboratories) with ImmPACT DAB Peroxidase Substrate (SK-4105, Vector Laboratories). Quantification of WT^+ve cells were performed in a blinded fashion from 4 images (200× field)/kidney (n=3-4 kidneys/group).

Col4a3-/- mice [4] = experiment: Treatment study in Col4a3-/- mice: body weight and kidney weight; assay type: in vivo, mouse
Experimental: (§2) Col4a3^−/− (Col4a3^tm1Dec) mice were purchased from The Jackson Laboratory (https://www.jax.org/strain/002908). Mice were housed in temperatures of 21-24° C. with 40-70% humidity on a 12 h light/12 h dark cycle and provided with food and water ad libitum. For treatment study, Col4a3^−/− were administered 20 mg/kg of anti-IL11 (X203) or IgG isotype control (11E10) by intraperitoneal (IP) injection starting from 6 weeks of age twice a week for 2.5 weeks; wild-type littermates were used as controls. Mice were sacrificed for blood and kidney collection when they were 8.5-week-old. For lifespan study, IgG/X203 was administered to 6-week-old Col4a3^−/− (2×/week) until death ensued.

Col4a3-/- mice [5] = experiment: Treatment study: renal function by colorimetric assays (BUN, creatinine, urinary albumin:creatinine); assay type: in vivo, mouse; conditions: 20 mg/kg 2x/week from week 6; study end 8.5 weeks of age; vs IgG
Experimental: as §2
The levels of blood urea nitrogen (BUN) and creatinine in mouse serum were measured using Urea Assay Kit (ab83362, Abcam) and Creatinine Assay Kit (ab65340, Abcam), respectively. Urine albumin and creatinine levels were measured using Mouse Albumin ELISA kit (ab108792, Abcam) and Creatinine Assay Kit (ab204537, Abcam), respectively. All ELISA and colorimetric assays were performed according to the manufacturer's protocol.

[6] = test system: kidneys of Col4a3-/- mice; experiment: Treatment study: renal mRNA expression by qPCR; assay type: in vivo, mouse; conditions: 20 mg/kg IP 2x/week from 6 weeks for 2.5 weeks
Experimental: as §2
Total RNA was extracted from snap-frozen kidney tissues using Trizol (Invitrogen) followed by RNeasy column (Qiagen) purification. cDNAs were synthesized with iScript™ cDNA synthesis kit (Bio-Rad) according to manufacturer's instructions. Gene expression analysis was performed on duplicate samples with either TaqMan (Applied Biosystems) or fast SYBR green (Qiagen) technology using StepOnePlus™ (Applied Biosystem) over 40 cycles. Expression data were normalized to GAPDH mRNA expression and fold change was calculated using 2^−ΔΔct method. The sequences of specific TaqMan probes and SYBR green primers are available upon request.

[7] = test system: kidneys of Col4a3-/- mice; experiment: Treatment study: Wilms' Tumor 1 immunohistochemistry (podocytes); assay type: in vivo, mouse; conditions: 20 mg/kg IP 2x/week from 6 weeks for 2.5 weeks, vs IgG
Experimental: as §2, §1

[8] = test system: kidneys of Col4a3-/- mice; experiment: Treatment study: kidney fibrosis (renal collagen content, Masson's Trichrome staining); assay type: in vivo, mouse; conditions: 20 mg/kg IP 2x/week from 6 weeks for 2.5 weeks; vs IgG
Experimental: as §2
Kidney tissues were fixed for 48 hours at RT in 10% neutral-buffered formalin (NBF), dehydrated, embedded in paraffin, and sectioned at 7 μm. Transverse kidney sections were then stained with Masson's Trichrome according to standard protocol. Images of the sections were captured by light microscopy and blue-stained fibrotic areas were semi-quantitatively determined with Image-J software (color deconvolution-Masson Trichrome) from the whole kidney area (100× field, n=4 kidneys/group). Treatment and genotypes were not disclosed to investigators performing the histology and generating semi-quantitative readouts.

[9] = test system: mice homozygous for the Col4a3tm1Dec mutation; experiment: Survival in mouse model of Alport syndrome (Example 1); assay type: in vivo; conditions: 20 mg/kg intraperitoneal, biweekly, from 6 weeks of age until mortality
From the text: 129-Col4a3^tm1Dec/J mice were obtained from The Jackson Laboratory (Stock No:002908; COL4A3 KO). The mice comprise the Co/4a3^tm1Dec mutation described e.g. in Cosgrove et al., Genes Dev. (1996) 10:2981-2992, which is hereby incorporated by reference in its entirety. 129-Col4a3^tm1Dec/J mice comprise a targeted mutation to Col4a3, resulting in progressive glomerulonephritis with microhematuria and proteinuria, and mice homozygous for the mutation typically die at about 8.5 weeks.
From 6 weeks of age, mice homozygous for the Co/4a3^tm1Dec mutation were administered biweekly by intraperitoneal injection of 20 mg/kg of Enx203, or an isotype-matched control antibody, until mortality.

[10] = test system: kidneys of Col4a3-/- mice; experiment: Treatment study: Western blot of kidney protein extracts; assay type: in vivo, mouse; conditions: 20 mg/kg IP 2x/week from 6 weeks for 2.5 weeks; vs IgG
Experimental: as §2
Western blot was carried out on total protein extracts from mouse kidney tissues. Kidneys were lysed in radioimmunoprecipitation assay (RIPA) buffer containing protease and phosphatase inhibitors (Thermo Scientifics), followed by centrifugation to clear the lysate. Protein concentrations were determined by Bradford assay (Bio-Rad). Protein lysates were separated by SDS-PAGE, transferred to PVDF membrane, and subjected to immunoblot analysis for various antibodies as outlined in the main text, figures, or and/or figure legends. Proteins were visualized using the ECL detection system (Pierce) with the appropriate secondary antibodies: anti-rabbit HRP or antimouse HRP.

Col4a3-/- mice [11] = experiment: Lifespan study in Col4a3-/- mice (Example 2); assay type: in vivo, mouse; conditions: 20 mg/kg 2x/week from 6 weeks of age until death
Experimental: as §2
Statistical analyses were performed using GraphPad Prism software (version 8). Statistical significance between control and experimental groups were analysed by twosided Student's t tests or by one-way ANOVA as indicated in the figure legends. P values were corrected for multiple testing according to Tukey when several conditions were compared to each other within one experiment. Comparison analysis for two parameters from two different groups were performed by two-way ANOVA. Survival curves were analyzed by Gehan-Breslow-Wilcoxon test. The criterion for statistical significance was P<0.05.

[12] = treatment of 4-week-old mice, prior to onset of proteinuria and tubulointerstitial fibrosis

COc1ccc2c(c1)c(CC(=O)O)c(C)n2C(=O)c1ccc(Cl)cc1 [indomethacin, reference compound]
expression of IL-11 [1]: reduction

CCOC(=O)[C@H](CCc1ccccc1)N[C@@H](C)C(=O)N1[C@H](C(=O)O)C[C@@H]2CCC[C@@H]21 [ramipril]
effect of delayed treatment (Col4a3-/- mice [2]; treatment delayed until after proteinuria was established (6-week-old mice)): ineffective; also recorded: no beneficial effect
kidney dysfunction (Col4a3-/- mice [2]; [12]): attenuated
lifespan (Col4a3-/- mice [2]; [12]): prolonged

B1: interferon-gamma: interferon-gamma (IFNγ) (protein, UniProt P01579 24-161, looked up)
Interferon gamma: QDPYVKEAENLKKYFNAGHSDVADNGTLFLGILKNWKEESDRKIMQSQIVSFYFKLFKNFKDDQSIQKSVETIKEDMNVKFFNSNKKKRDDFEKLTNYSVTDLNVQRKAIHELIQVMAELSPAAKTGKRKRSQMLFRG
expression of IL-11 [1]: reduction

B2: anti-IL11RA antibody X209 (antibody, V domains shown)
VH: QVQLQQPGAELVRPGSSVKLSCKASGYTFTNYWMHWLKQRPVQGLEWIGNIGPSDSKTHYNQKFKDKATLTVDKSSSTAYMQLNSLTSEDSAVYYCARGDYVLFTYWGQGTLVTVSA
VL: DIVLTQSPATLSLSPGERATLSCRASQSISNNLHWYQQKSHEAPRLLIKYASQSISGIPARFSGSGSGTDFTLSFSSLETEDFAVYFCQQSYSWPLTFGQGTKLEIK
notes: also called Enx209; anti-IL11RA (X209, Aldevron)
binding result [3]: binds

B3: X203: mouse anti-mouse IL-11 IgG, neutralizing IL11 antibody; VH SEQ ID NO:22, VL SEQ ID NO:23 (antibody, V domains shown)
VH: EVQLQQSGPELVKPGASVKIPCKASGYTFTDYNMDWVKQSHGKSLEWIGDINPHNGGPIYNQKFTGKATLTVDKSSSTAYMELRSLTSEDTAVYYCARGELGHWYFDVWGTGTTVTVSS
VL: DIVLTQSPASLAVSLGQRATISCRASKSVSTSGYSYIHWYQQKPGQPPKLLIYLASNLDSGVPARFSGSGSGTDFTLNIHPVEEEDAATYYCQHSRDLPPTFGGGTKLEIK
kidney mass (Col4a3-/- mice [4]; 20 mg/kg IP 2x/week from 6 weeks for 2.5 weeks, vs IgG): preserved
total body weight loss, as percentage of starting body weight (Col4a3-/- mice [4]; 20 mg/kg IP 2x/week from 6 weeks of age for 2.5 weeks, end of study, IgG control 30%, P=0.0003): 17%
serum blood urea nitrogen (BUN) (Col4a3-/- mice [5]): markedly lowered
serum creatinine (Cr) (Col4a3-/- mice [5]): markedly lowered
urinary albumin:creatinine ratio (ACR) (Col4a3-/- mice [5]): markedly lowered
CC chemokine CcI2 mRNA ([6]; vs IgG): diminished
CC chemokine CcI5 mRNA ([6]; vs IgG): diminished
Tnfα expression ([6]; vs IgG): reduced
proinflammatory interleukin II1b mRNA ([6]; vs IgG): diminished
proinflammatory interleukin II6 mRNA ([6]; vs IgG): diminished
renal level of Col1a1 gene expression ([6]; vs IgG): reduced
renal level of Col1a2 gene expression ([6]; vs IgG): reduced
renal level of Col3a1 gene expression ([6]; vs IgG): reduced
renal level of Fn gene expression ([6]; vs IgG): reduced
renal level of II11 gene expression ([6]; vs IgG): reduced
renal level of Tgfb1 gene expression ([6]; vs IgG): reduced
renal level of myofibroblast marker Acta2 gene expression ([6]; vs IgG): reduced
tubule damage indicator Kim1 mRNA ([6]; vs IgG and wild-type): restored
tubule damage indicator Ngal mRNA ([6]; vs IgG and wild-type): restored
Wilms' Tumor 1 (WT1) staining [7]: greater staining
number of WT1-positive cells (podocytes) ([7]; blinded quantification): restored towards normal; also recorded: significant (P=0.0002) restoration
kidney fibrosis by biochemical and histological assessments [8]: significantly less
increase in survival relative to mice treated with isotype-matched control antibody [9]: up to 40%
Caspase 3 activation [10]: reduced
ERK phosphorylation in kidneys [10]: largely diminished
Podocin protein level (immunoblotting) [10]: restored towards normal
STAT3 phosphorylation in kidneys [10]: largely diminished
Wilms' Tumor 1 protein level (immunoblotting) [10]: restored towards normal; also recorded: Preservation of podocytes
alpha-smooth muscle actin (αSMA) protein level (reduction seen on transcript) [10]: confirmed at the protein level
degree of TGFβ upregulation in the kidneys [10]: significantly reduced
fibronectin protein level (reduction seen on transcript) [10]: confirmed at the protein level
median lifespan (Col4a3-/- mice [11]; IgG control 62.5 days, P=0.0015): 88.5 days
extension of median life span (Col4a3-/- mice [11]; vs IgG control): 41.6%
